Measured values as given in publication PMC12232663, “Molecular contacts in self-assembling clusters of membrane proteins” (Proceedings of the National Academy of Sciences of the …, 2025).

Target: the molecule itself
Test: cryo-EM structure; single-particle reconstruction of purified channel reconstituted into POPC vesicles (protein:lipid 1:20, 10 mM Tris pH 8.0, 150 mM KCl); C4-symmetric map; monomers to tetramer

B1: Human HCN1 with a C-terminal truncation (residues 636 to 865) (natural protein, UniProt O60741 1-890, looked up)
chain: MEGGGKPNSSSNSRDDGNSVFPAKASATGAGPAAAEKRLGTPPGGGGAGAKEHGNSVCFKVDGGGGGGGGGGGGEEPAGGFEDAEGPRRQYGFMQRQFTSMLQPGVNKFSLRMFGSQKAVEKEQERVKTAGFWIIHPYSDFRFYWDLIMLIMMVGNLVIIPVGITFFTEQTTTPWIIFNVASDTVFLLDLIMNFRTGTVNEDSSEIILDPKVIKMNYLKSWFVVDFISSIPVDYIFLIVEKGMDSEVYKTARALRIVRFTKILSLLRLLRLSRLIRYIHQWEEIFHMTYDLASAVVRIFNLIGMMLLLCHWDGCLQFLVPLLQDFPPDCWVSLNEMVNDSWGKQYSYALFKAMSHMLCIGYGAQAPVSMSDLWITMLSMIVGATCYAMFVGHATALIQSLDSSRRQYQEKYKQVEQYMSFHKLPADMRQKIHDYYEHRYQGKIFDEENILNELNDPLREEIVNFNCRKLVATMPLFANADPNFVTAMLSKLRFEVFQPGDYIIREGAVGKKMYFIQHGVAGVITKSSKEMKLTDGSYFGEICLLTKGRRTASVRADTYCRLYSLSVDNFNEVLEEYPMMRRAFETVAIDRLDRIGKKNSILLQKFQKDLNTGVFNNQENEILKQIVKHDREMVQAALPRESSSVLNTDPDAEKPRFASNL
notes: source: HEK293S GnTI- cells (BacMam), purified (GFP-nanobody resin, SEC in LMNG:CHS), reconstituted into POPC vesicles
stoichiometry N: 4
